Measured values taken from US20240117011A1 (US Dept. of Health and Human Services, published 2024).

B1: A19-1.1 (antibody, V domains shown)
VH: QVQLVESGGGVVQPGRSLRLSCAASGFTFTNYAMHWVRQAPGKGLEWVAVISNDGSDKYYADSVKGRFTISRDNSKSTVYLQMSSLRPEDTAVYFCARDPPQVHWSLDYWGQGTLVTVSS
VL: QSALTQPPSASGSPGQSVTISCTGTSSDVGDYNYVSWYQHHPGKAPKLIIYDVSKRPSGVPDRFSGSKSGDTASLTVSGLQAEDEADYYCSSYAGNNNAVFGTGTKVTVL
B2: A19-46.1 (antibody, V domains shown)
VH: QVQLVESGGGVVQPGRSLRLSCAASGFTLSSYGMHWVRQAPGKGLEWVAVISYDGSNKYYVDSVKGRFTISRDNSKNTLYLQMNSLRAEDTAVYYCARGWAYWELLPDYYYGMDVWGQGTTVTVSS
VL: QTVVTQEPSFSVSPGGTVTLTCGLSSGSVSTAYFPSWYQQTPGQAPRTLIYGTNTRSSGVPDRFSGSILGNKAALTITGAQADDESDYYCVLYMGRGIVVFGGGTKLTVL
B3: A19-30.1 (antibody, V domains shown)
VH: QVQLVESGGGVVQPGRSLRLSCAASGFTFSNYGMHWVRQAPGKGLEWLAVISYDGSNKYYADSVKGRFTISRDNSKNTLFLQMNSLRAEDTAVYYCAKESQFGELFEALDYWGQGTLVTVSS
VL: SYELTQPPSVSVSPGQTARITCSGDALPRKYAFWYQQKSGQAPVLVISEDSKRPSGIPERFSGSSSGTMATLTISGAQVEDEADYYCYSTDSSGNHRVFGGGTKLTVL
B4: A20-36.1 (antibody, V domains shown)
VH: QVQLVESGGGVVQPGRSLRLSCAASGFIFSSYGVHWVRQAPGKGLEWVAVIWHDESNKDYADSVKGRFTISRDNSKNTVYLQMNSLRAEDTAMYYCARDGYDFLTGAYELDYWGQGTLVTVSS
VL: SYELTQPPSVSVSPGQTARITCSGDALPKQYAYWYQQKPGQAPVVVIYKDSERPSGIPERFSGSSSGTTVTLTISGVQAEDEADYYCQSADSSGTWVFGGGTKLTVL
B5: A20-9.1 (antibody, V domains shown)
VH: QVQLVESGGGVVQPGRSLRLSCAASGFTFSSYGMHWVRQAPGKGLEWVAFISYDGSNKYYADSVKGRFTISRDNSKNTLYLQMNSLRAEDTAVYYCAKDYWSVAAGTSWFDPWGQGTLVSVSS
VL: B4 VL
B6: A23-105.1 (antibody, V domains shown)
VH: QVQLVESGGGVVQPGRSLRLSCAASGFTFSNYAIHWVRQAPGKGLEWVAVISYDGSNKYYADSVKGRFTISRDNSKNTLYLEMNSLRAEDMAVYYCARVGPYQYDSSAAFDIWGQGTMVTVSS
VL: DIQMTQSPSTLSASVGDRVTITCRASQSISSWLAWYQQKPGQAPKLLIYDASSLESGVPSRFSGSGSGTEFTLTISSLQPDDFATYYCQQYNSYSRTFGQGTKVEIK
B7: A19-82.1 (antibody, V domains shown)
VH: QVQLVESGGGVVQPGRSLRLSCVVSGLIFSTYDMHWVRQAPGKGLEWVAVISYDGSYKHYADSVKGRFTISRDSSKNTLYLQMNSLRPEDTAVYYCAKGEGVVAGTGKFDYWGQGTLVTVSS
VL: SYVLTQPPSVSVAPGQTARITCGGNNIGSKSVHWYQQKPGQAPVLVVYDDSDRPSGIPERFSGSNSGNTATLTISRVEAGDEADYYCQVWDGSGDPWVFGGGTKLTVL
B8: A23-113.1 (antibody, V domains shown)
VH: QVHLEESGGAVVQPGRSLRLSCAASGFTFSSYGMHWVRQAPGKGLEWVAVISHDGSYKYYADSVKGRFTISRDNSKDTLYLQTNSLRAEDTAMYYCAKSYGYWMAYFDYWGQGTLVTVSS
VL: DIQMTQSPSSLSASVGDRVTITCRASQDISNYLAWYQQKPGKVPKLLIYAASTLQSGVPSRFSGSGSGTDFTLTISSLQPEDVATYYCQKYNSPWHTFGGGTKVEIK
B9: A23-80.1 (antibody, V domains shown)
VH: QVQLVQSGAEVKKPGASVKVSCKASGYTFTSNGVTWVRQAPGQGLEWMGWISTYNGDTNYAQKLQGRVSMTTDTSTRTVYMELRSLRSDDTAVYYCARVGDAYCSGGSCYHFDYWGQGTLVTVSS
VL: EIVMTQSPATLSVSPGERATLSCRASQSVSTNLAWYQQKPGQAPRLLIYGASTRATGIPARFSGSGSGTEFTLTISSLQSEDFALYYCQQYDNWPPEFTFGPGTKVDIK
B10: A20-29.1 (antibody, V domains shown)
VH: EVQLVESGGGLVQPGRSLRLSCAASGFTFDDYAMHWVRQTPGKGLEWVSGISWNSGDIDYADSVKGRFTISRDNAKNSLYLQMNSLRTEDTALYYCTKGWFGEFFGAGSICDYWGQGTLVTVSS
VL: EIVMTQSPATLSVSPGERATLSCRASQSVSNNLAWYQQKPGQAPRLLIYGASTRATGIPARFSGSGSGTEFTLTISSLQSEDFAVYYCQQYNNWPLFGQGTKVEIK
B11: A23-97.1 (antibody, V domains shown)
VH: QVQLVESGGGVVQPGGSLRLSCAASGFTFSSFGMHWVRQAPGKGLEWVAFIRYDGSNKYYADSVKGRFTISRDNSKNTLYLQMNSLRAEDTAVYYCAKTELYYYDSSGPLGWGQGTLVTVSS
VL: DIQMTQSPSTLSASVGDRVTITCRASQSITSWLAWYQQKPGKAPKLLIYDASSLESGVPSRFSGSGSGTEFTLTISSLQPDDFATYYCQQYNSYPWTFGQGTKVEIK
B12: A19-61.1 (antibody, V domains shown)
VH: QVQLVESGGGVVQPGRSLRLSCAASGFTFSSYAFHWVRQAPGKGLEWVAVISYDGSNQYYADSVKGRFTISRDNSKNTLYLQMNSLRADDTAVYYCARDLAIAVAGTWHYYNGMDVWGQGTTVTVSS
VL: DIQMTQSPSSVSASVGDRVIITCRASQGISSWLAWYQQKPGKAPKVLIYDASSLQSGVPSRFSGSGYGTDFTLTISSLQPEDSATYYCQQAKSFPITFGQGTRLEIK

Experiments:
[1] = molecular target: SARS-CoV-2 NTD (SARS-CoV-2, UniProt P0DTC2 14-305); experiment: ELISA
[2] = molecular target: full-length SARS-CoV-2 spike, WA-1 / Wuhan-1 (S wt) (SARS-CoV-2, UniProt P0DTC2 14-1273); experiment: cell-based or functional assay
[3] = molecular target: T1, SARS-CoV-2 S1 (SARS-CoV-2, UniProt P0DTC2 14-681); experiment: ELISA
T1 construct: range 1-681

[4] = molecular target: SARS-CoV-2 RBD (SARS-CoV-2, UniProt P0DTC2 319-541); experiment: ELISA

Row | Binder | binding result [1] | pseudotyped virus neutralization IC50 [2] | pseudotyped virus neutralization IC80 [2] | binding result [3] | binding result [4]
1 | B1 | no binding | 0.126 µg/mL | 0.53 µg/mL |  | 
2 | B2 |  | 0.0398 µg/mL | 0.129 µg/mL |  | 
3 | B3 | no binding |  |  | binds | binds
4 | B4 | no binding | 1.39 µg/mL | 3.76 µg/mL |  | no binding
5 | B5 | no binding | 1.21 µg/mL |  |  | no binding
6 | B6 | no binding | 0.0889 µg/mL | 0.228 µg/mL |  | 
7 | B7 | no binding | 0.72 µg/mL | 5.93 µg/mL |  | 
8 | B8 | no binding | 0.393 µg/mL | 7.81 µg/mL |  | 
9 | B9 | no binding | 0.321 µg/mL |  |  | 
10 | B10 |  | 0.348 µg/mL | 1.36 µg/mL |  | 
11 | B11 | no binding | 0.484 µg/mL | 5.28 µg/mL |  | 
12 | B12 | no binding | 0.0709 µg/mL | 0.163 µg/mL |  | 
